Results as given in patent US20240317834A1, “COMPOSITIONS AND METHODS FOR NEUROLOGICAL DISEASES” (CODA BIOTHERAPEUTICS, INC., priority 2020, published 2024).

Tested on: Lenti-X 293T cells
Experiment: YFP fluorescence quenching anion reporter plate reader assay of engineered receptors stimulated with acetylcholine or a non-native ligand
Format: cell-based
Excerpt: To screen these mutant LGICs for those having novel response profiles to ligands, an anion reporter assay was developed to assess the function of the LGICs in a high throughput format. In this assay, cells expressing a YFP reporter whose fluorescence is quenched in the presence of anion are transfected with DNA encoding the channel of interest. Upon exposure to ligand, channels that are activated will flux anion, resulting in a dose-dependent quench of the YFP that can be detected on a plate reader. The greater the quench signal (i.e., the more positive the value), the higher the ligand activity on the receptor is.
Lenti-X 293T cells (LX293T, Clontech) were maintained in DMEM containing 10% FBS and 1% penicillin/streptomycin (Invitrogen). […] Two days before assay, cells were split at a density of 20,000 cells/well in a 96-well tissue culture plate coated with poly-d lysine (Thermo Scientific). The next day, the cells were transiently transfected with 0.1 μg of DNA per well using standard Fugene protocol (Promega). On the day of assay, cells were washed 2 times in 1× extracellular solution (1×ECS: 140 mM NaCl, 5 mM KCl, 1 mM MgCl2, 2 mM CaCl2), 10 mM HEPES, 10 mM glucose, pH 7.2, mOsms 300). After the last wash, 100 μL of 1×ECS was added to the wells and the plate was incubated at 37° C. for 30 min. While incubating the plate, the drugs were diluted to a 2× concentration in 1×ECS-NaI (same components as 1×ECS except the 140 mM NaCl was replaced by 140 mM NaI). The plates were then read on a Flexstation3 (Molecular Devices). Each well, 8 wells at a time, of the plate is read for 2 min using a Flexstation3 (Molecular Devices) as follows: 1) a baseline YFP fluorescence is read for 17 sec, 2) 100 μL of ligand is added, and 3) the changes in YFP fluorescence are then measured every 1.3 sec for 1 minute and 43 seconds. The percent quench is calculated from the average fluorescence of the last 10 seconds of the read divided by the baseline average of the first 15 seconds prior to the ligand addition.
FIGS. 1A-1J provide heat maps of the percent quench of YFP fluorescence following stimulation by various doses of either acetylcholine or the non-native ligand as indicated in the Figures. CODA71 (SEQ ID NO: 33) was used as a control, and CODA75 (SEQ ID NO: 29, a non-responding chimeric engineered receptor) was used as the negative control. Quenching of the fluorescence signal, as indicated by blue shaded cells, indicate the level of engineered receptor activation by the non-native ligand at that concentration.

B1: CODA326: engineered chimeric LGIC receptor, L131A in SEQ ID NO: 33 (protein)
chain: MRCSPGGVWLALAASLLHVSLQGEFQRKLYKELVKNYNPLERPVANDSQPLTVYFSLSLLQIMDVDEKNQVLTTNIWLQMSWTDHYLQWNVSEYPGVKTVRFPDGQIWKPDILLYNSADERFDATFHTNVAVNSSGHCQYLPPGIFKSSCPMDLKNFPMDVQTCKLKFGSWSYGGWSLDLQMQEADISGYIPNGEWDLVGIPGKRSERFYECCKEPYPDVTFTVTMRRRMGYYLIQMYIPSLLIVILSWISFWINMDAAPARVGLGITTVLTMTTQSSGSRASLPKVSYVKAIDIWMAVCLLFVFSALLEYAAVNFVSRQHKELLRFRRKRRHHKSPMLNLFQEDEAGEGRFNFSAYGMGPACLQAKDGISVKGANNSNTTNPPPAPSKSPEEMRKLFIQRAKKIDKISRIGFPMAFLIFNMFYWIIYKIVRREDVHNQ
modifications: synthetic sequence of chimeric LGIC
YFP fluorescence quenching using CNL001 (1 nM CNL001, first column): 76.424%
YFP fluorescence quenching using CNL001 (1 nM CNL001, second column): 80.567%
YFP fluorescence quenching using TC-5619/Bradanicline (3 nM brd): 72.24%
YFP fluorescence quenching using Varenicline (3 nM var, first column): −5.939
YFP fluorescence quenching using Varenicline (3 nM var, second column): −2.294
YFP fluorescence quenching using CNL001 (10 nM CNL001, first column): 80.284%
YFP fluorescence quenching using CNL001 (10 nM CNL001, second column): 81.232%
YFP fluorescence quenching using TC-5619/Bradanicline (30 nM brd): 77.4%
YFP fluorescence quenching using Facinicline (30 nM fac): 69.94
YFP fluorescence quenching using Varenicline (30 nM var, first column): 68.663
YFP fluorescence quenching using Varenicline (30 nM var, second column): 70.718
YFP fluorescence quenching using CNL001 (50 nM CNL001, first column): 81.575%
YFP fluorescence quenching using CNL001 (50 nM CNL001, second column): 82.544%
YFP fluorescence quenching using ABT-126 (50 nM abt): −21.91%
YFP fluorescence quenching using CNL001 (100 nM CNL001, first column): 81%
YFP fluorescence quenching using CNL001 (100 nM CNL001, second column): 81.718%
YFP fluorescence quenching using CNL002 (100 nM CNL002): 27.88%
YFP fluorescence quenching using ABT-126 (100 nM abt): −0.5%
YFP fluorescence quenching using AZD-0328 (100 nM azd0328): 80.39%
YFP fluorescence quenching using ABT-126 (300 nM abt): 34.86%
YFP fluorescence quenching using AZD-0328 (300 nM azd0328): 82.07%
YFP fluorescence quenching using TC-5619/Bradanicline (300 nM brd): 78.02%
YFP fluorescence quenching using Facinicline (300 nM fac): 80.07
YFP fluorescence quenching using Varenicline (300 nM var, first column): 79.88
YFP fluorescence quenching using Varenicline (300 nM var, second column): 79.742
YFP fluorescence quenching using Varenicline (500 nM var, first column): 79.311
YFP fluorescence quenching using Varenicline (500 nM var, second column): 80.029
YFP fluorescence quenching using CNL001 (1 uM CNL001, first column): 82.334%
YFP fluorescence quenching using CNL001 (1 uM CNL001, second column): 81.539%
YFP fluorescence quenching using CNL002 (1 uM CNL002): 73.79%
YFP fluorescence quenching using ABT-126 (1 uM abt): 56.66%
YFP fluorescence quenching using TC-6987 (1 uM tc6987): 73.37
YFP fluorescence quenching using Varenicline (1 uM var, first column): 80.952
YFP fluorescence quenching using Varenicline (1 uM var, second column): 79.329
YFP fluorescence quenching using TC-6987 (10 uM tc6987): 78.18
YFP fluorescence quenching using CNL002 (30 uM CNL002): 75.89%
YFP fluorescence quenching using AZD-0328 (30 uM azd0328): 82.23%
YFP fluorescence quenching using Facinicline (30 uM fac): 78.32
YFP fluorescence quenching using TC-6987 (500 uM tc6987): 75.42
percent quench of YFP fluorescence, 30 nM TC-6683 (TC-6683 30 nM): −16.28%
percent quench of YFP fluorescence, 300 nM TC-6683 (TC-6683 300 nM): −11.73%
percent quench of YFP fluorescence, 3 uM TC-6683 (TC-6683 3 uM): −2.38%
percent quench of YFP fluorescence, 30 uM TC-6683 (TC-6683 30 uM): −9.77%
percent quench of YFP fluorescence, 100 uM TC-6683 (TC-6683 100 uM): 0.97%
percent quench of YFP fluorescence, 10 uM ach (acetylcholine 10 uM): 7.43%
percent quench of YFP fluorescence, 100 uM ach (acetylcholine 100 uM): 73.57%
percent quench of YFP fluorescence, 1 mM ach (acetylcholine 1 mM): 71.8%
percent quench of YFP fluorescence, 3 mM ach (acetylcholine 3 mM): 74.49%
